According to article PMC9936548, “Repertoire of Computationally Designed Peroxygenases for Enantiodivergent C–H Oxyfunctionalization Reactions” (Journal of the American Chemical Society, 2023):

Substrate: CCc1ccccc1
Experiment: purified protein
Format: biochemical, Cyclocybe aegerita
[1] = 2 mM H2O2, 100 mM phosphate pH 7.0, design d2
[2] = 2 mM H2O2, 100 mM phosphate pH 7.0, design d4

Protein | Km [1] | kcat [1] | kcat/Km [1] | Km [2] | kcat [2] | kcat/Km [2]
PaDa-I (evolved AaeUPO) (Cyclocybe aegerita; A359P/F242L/F354L/G284I/I291V/L110F/T235L/V100A/V118I/V287I) (protein, laboratory-evolved secretion mutant PaDa-I; mature, no tag; evolved signal peptide (F12Y/A14V/R15G/A21D in leader); heme and structural Mg; expressed in Pichia pastoris, purified to homogeneity) EPGLPPGPLENSSAKLVNDEAHPWKPLRPGDIRGPCPGLNTLASHGYLPRNGVATPAQIINAVQEGFNFDNQAAIFATYAAHLVDGNLITDLLSIGRKTRLTGPDPPPPASVGGLNEHGTFEGDASMTRGDAFFGNNHDFNETLFEQLVDYSNRFGGGKYNLTVAGELRFKRIQDSIATNPNFSFVDFRFFLAYGETTLPANLFVDGRRDDGQLDMDAARSFFQFSRMPDDFFRAPSPRSITGIEVVVQAHPMQPGRNVGKINSYTVDPTSSDFSTPCLMYEKFVNITVKSLYPNPTVQLRKALNTNLDFLFQGVPAGCTQVFPYGRD | 560 ± 200 µM | 570 ± 119 s⁻¹ | 1.02e+06 M⁻¹ s⁻¹ | – | – | –
PaDa-I (evolved AaeUPO) (Cyclocybe aegerita; A120I/F112L/F242L/F354L/G284N/I291V/L110F/V100A/V118I/V287T) (protein, laboratory-evolved secretion mutant PaDa-I; mature, no tag; evolved signal peptide (F12Y/A14V/R15G/A21D in leader); heme and structural Mg; expressed in Pichia pastoris, purified to homogeneity) EPGLPPGPLENSSAKLVNDEAHPWKPLRPGDIRGPCPGLNTLASHGYLPRNGVATPAQIINAVQEGFNLDNQAAIFITYAAHLVDGNLITDLLSIGRKTRLTGPDPPPPASVGGLNEHGTFEGDASMTRGDAFFGNNHDFNETLFEQLVDYSNRFGGGKYNLTVAGELRFKRIQDSIATNPNFSFVDFRFFTAYGETTLPANLFVDGRRDDGQLDMDAARSFFQFSRMPDDFFRAPSPRSNTGTEVVVQAHPMQPGRNVGKINSYTVDPTSSDFSTPCLMYEKFVNITVKSLYPNPTVQLRKALNTNLDFLFQGVAAGCTQVFPYGRD | – | – | – | 560 ± 200 µM | 570 ± 119 s⁻¹ | 1.02e+06 M⁻¹ s⁻¹
